Test results as given in article PMC8578495.
Where two headings read alike, the source gives them in different places.

Substance	expression_or_secretion (ubiquitination at K86)	expression_or_secretion (ubiquitination at K827)	expression_or_secretion (ubiquitination at K848)
Mps1: RRR (K86R, K827R, K848R)	increases	increases	increases
Mps1: K86R	increases		
Mps1: K848R			increases
Mps1: K827R		increases	
